Data taken from the supplement of paper PMC9233669.
Variants at the floor of the assay were thinned out.

Legend:
[1] = tested on: biotinyl-Trp-oxazolone; experiment: self-aminoacylation, catalytic enhancement (BWO) (fold over background); higher = more active; k-Seq, kA / k0A0; sequences stand for … in GGGAAUGGAUCCACAUCUACGAAUUC…UUCACUGCAGACUUGACGAAGCUG
Outline: (§1)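 Mutagenized RNA pools with a 21-nt variable region (0.43 μM) were reacted with each biotinyl-aminoacyl-oxazolone at 2–1250 μM for 90 minutes at room temperature, in 50 μL HEPES/NaCl/KCl/MgCl2/CaCl2 buffer containing 5% acetonitrile at pH 6.9–7.0. RNA captured on streptavidin was quantified by triplicate qPCR and by Illumina sequencing. The fraction reacted for each sequence was fit to a pseudo-first-order model with bootstrapping, and catalytic enhancement is the median kA divided by the uncatalyzed rate, taken as the low-activity peak of a bimodal Gaussian fit.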

[2] = tested on: biotinyl-Val-oxazolone; experiment: self-aminoacylation, catalytic enhancement (BVO) (fold over background); higher = more active; k-Seq, kA / k0A0; sequences stand for … in GGGAAUGGAUCCACAUCUACGAAUUC…UUCACUGCAGACUUGACGAAGCUG
Outline: as §1

[3] = tested on: biotinyl-Leu-oxazolone; experiment: self-aminoacylation, catalytic enhancement (BLO) (fold over background); higher = more active; k-Seq, kA / k0A0; sequences stand for … in GGGAAUGGAUCCACAUCUACGAAUUC…UUCACUGCAGACUUGACGAAGCUG
Outline: as §1

[4] = tested on: biotinyl-Met-oxazolone; experiment: self-aminoacylation, catalytic enhancement (BMO) (fold over background); higher = more active; k-Seq, kA / k0A0; sequences stand for … in GGGAAUGGAUCCACAUCUACGAAUUC…UUCACUGCAGACUUGACGAAGCUG
Outline: as §1

[5] = tested on: biotinyl-Phe-oxazolone; experiment: self-aminoacylation, catalytic enhancement (BFO) (fold over background); higher = more active; k-Seq, kA / k0A0; sequences stand for … in GGGAAUGGAUCCACAUCUACGAAUUC…UUCACUGCAGACUUGACGAAGCUG
Outline: as §1

[6] = tested on: biotinyl-Ile-oxazolone; experiment: self-aminoacylation, catalytic enhancement (BIO) (fold over background); higher = more active; k-Seq, kA / k0A0; sequences stand for … in GGGAAUGGAUCCACAUCUACGAAUUC…UUCACUGCAGACUUGACGAAGCUG
Outline: as §1

Sequence | self-aminoacylation [1] | self-aminoacylation [2] | self-aminoacylation [3] | self-aminoacylation [4] | self-aminoacylation [5] | self-aminoacylation [6]
CUACUUCAAUCGAUCGGUCUG [Fam1A.1 aminoacylation ribozyme variant] | 0.977 | 0.754 | 0.634 | 0.707 | 0.776 | 0.687
CUACUUCACACAAGCGGUCUG [Fam1A.1 aminoacylation ribozyme variant] | 1.01 | 0.993 | 0.817 | 0.816 | 0.75 | 1.03
CUACUUCACACAAUCGGUCUU [Fam1A.1 aminoacylation ribozyme variant] | 0.713 | 0.85 | 0.856 | 0.639 | 0.701 | 0.963
CUACUUCACACAAUCUGUCUG [Fam1A.1 aminoacylation ribozyme variant] | 0.513 | 0.699 | 0.573 | 0.558 | 0.903 | 0.655
CUACUUCACACGAUCGGUCUG [Fam1A.1 aminoacylation ribozyme variant] | 0.654 | 0.777 | 0.853 | 0.97 | 0.678 | 0.913
CUACUUCAGACAAACGGUCUG [Fam1A.1 aminoacylation ribozyme variant] | 0.573 | 0.863 | 0.908 | 0.962 | 0.868 | 0.89
CUACUUCAGAUAAUCGGUCUG [Fam1A.1 aminoacylation ribozyme variant] | 0.432 | 0.686 | 0.675 | 0.648 | 0.629 | 0.643
CUACUUCAGGCAAUCGGUCUG [Fam1A.1 aminoacylation ribozyme variant] | 1.27 | 1.24 | 1.42 | 0.853 | 1.02 | 0.94
CUACUUCAGUCAAUCGGUCUG [Fam1A.1 aminoacylation ribozyme variant] | 0.463 | 0.807 | 0.667 | 0.848 | 0.793 | 0.565
CUACUUCAUACAAUCGGGCUG [Fam1A.1 aminoacylation ribozyme variant] | 0.764 | 0.994 | 0.877 | 0.744 | 0.688 | 1.11
CUACUUCAUACAAUCGGUCAG [Fam1A.1 aminoacylation ribozyme variant] | 0.721 | 0.699 | 0.662 | 0.644 | 0.985 | 0.738
CUACUUCAUACAAUCGGUCCG [Fam1A.1 aminoacylation ribozyme variant] | 0.49 | 0.653 | 0.669 | 0.76 | 0.5 | 0.675
CUACUUCAUACAAUCGGUGUG [Fam1A.1 aminoacylation ribozyme variant] | 0.545 | 0.956 | 1.14 | 0.959 | 0.976 | 0.839
CUACUUCAUACAAUCGGUUUG [Fam1A.1 aminoacylation ribozyme variant] | 0.425 | 0.541 | 0.602 | 0.538 | 0.619 | 0.64
CUACUUCAUACAAUGGGUCUG [Fam1A.1 aminoacylation ribozyme variant] | 0.764 | 0.757 | 0.803 | 0.755 | 0.65 | 0.805
CUACUUCCAACAAUAGGUCUG [Fam1A.1 aminoacylation ribozyme variant] | 0.417 | 0.688 | 0.578 | 0.562 | 0.659 | 0.744
CUACUUCCAACAAUCGGUCAG [Fam1A.1 aminoacylation ribozyme variant] | 0.518 | 0.774 | 0.663 | 0.62 | 1.04 | 0.795
CUACUUCGAACAAACGGUCUG [Fam1A.1 aminoacylation ribozyme variant] | 0.619 | 0.805 | 0.535 | 0.664 | 0.51 | 0.709
CUACUUCGAACAAGCGGUCUG [Fam1A.1 aminoacylation ribozyme variant] | 0.528 | 0.64 | 0.9 | 0.624 | 0.721 | 0.727
CUACUUCGAACAAUCGGGCUG [Fam1A.1 aminoacylation ribozyme variant] | 1.57 | 1.54 | 1.24 | 1.02 | 0.645 | 1.3
CUACUUCGAACGAUCGGUCUG [Fam1A.1 aminoacylation ribozyme variant] | 0.707 | 1.04 | 1.06 | 0.779 | 0.279 | 0.846
CUACUUCGUACAAUCGGUCUG [Fam1A.1 aminoacylation ribozyme variant] | 0.327 | 0.685 | 0.596 | 0.519 | 0.251 | 0.571
CUACUUCUAACAAGCGGUCUG [Fam1A.1 aminoacylation ribozyme variant] | 0.64 | 0.694 | 0.658 | 0.708 | 0.708 | 0.801
CUACUUCUAACAAUCCGUCUG [Fam1A.1 aminoacylation ribozyme variant] | 0.586 | 0.792 | 0.656 | 0.679 | 0.709 | 0.905
CUACUUCUAACAAUCGGACUG [Fam1A.1 aminoacylation ribozyme variant] | 0.419 | 0.572 | 0.495 | 0.398 | 0.602 | 0.566
CUACUUCUAACAAUCGGUCUG [Fam1A.1 aminoacylation ribozyme variant] | 0.532 | 0.693 | 0.585 | 0.608 | 0.785 | 0.658

Sequence | self-aminoacylation [1] | self-aminoacylation [2] | self-aminoacylation [3] | self-aminoacylation [4] | self-aminoacylation [5] | self-aminoacylation [6]
CUACUUCUAACAAUCGGUGUG [Fam1A.1 aminoacylation ribozyme variant] | 0.569 | 0.687 | 0.907 | 0.91 | 0.728 | 0.844
CUACUUCUAACCAUCGGUCUG [Fam1A.1 aminoacylation ribozyme variant] | 0.45 | 0.761 | 0.653 | 0.659 | 0.859 | 0.703
CUACUUCUAUCAAUCGGUCUG [Fam1A.1 aminoacylation ribozyme variant] | 0.493 | 0.63 | 0.554 | 0.636 | 0.796 | 0.7
CUACUUGAAACAAACGGUCUG [Fam1A.1 aminoacylation ribozyme variant] | 1.03 | 0.985 | 0.826 | 1.05 | 0.858 | 1.02
CUACUUGAAACAAUCGGGCUG [Fam1A.1 aminoacylation ribozyme variant] | 2.37 | 1.93 | 1.83 | 1.95 | 1.26 | 1.51
CUACUUGAAACAAUCGGUCCG [Fam1A.1 aminoacylation ribozyme variant] | 1.48 | 1.02 | 0.748 | 1.31 | 0.497 | 0.929
CUACUUGAAACGAUCGGUCUG [Fam1A.1 aminoacylation ribozyme variant] | 0.726 | 1.05 | 1.24 | 1.11 | 0.916 | 0.968
CUACUUGAUACAAUCGGUCUG [Fam1A.1 aminoacylation ribozyme variant] | 0.517 | 0.776 | 0.734 | 0.735 | 0.52 | 0.753
CUACUUUAAACAAUCGGACUG [Fam1A.1 aminoacylation ribozyme variant] | 0.809 | 0.757 | 0.759 | 0.874 | 0.698 | 0.901
CUACUUUAAACAAUCGGCCUG [Fam1A.1 aminoacylation ribozyme variant] | 2.02 | 1.03 | 0.974 | 1.24 | 0.942 | 1.2
CUACUUUAAACAAUCGGUCUU [Fam1A.1 aminoacylation ribozyme variant] | 0.6 | 0.885 | 0.738 | 1.09 | 0.805 | 0.888
CUACUUUACACAAUCGGUCUG [Fam1A.1 aminoacylation ribozyme variant] | 0.543 | 0.805 | 0.742 | 0.872 | 0.601 | 0.87
CUACUUUCAACAAUCGGUCUG [Fam1A.1 aminoacylation ribozyme variant] | 10.3 | 1.06 | 1.09 | 0.895 | 14.5 | 0.99
CUACUUUUAACAAUCGGUCUG [Fam1A.1 aminoacylation ribozyme variant] | 0.516 | 0.802 | 0.713 | 0.921 | 0.864 | 0.888
CUAGCUCAAACAAUCGGUCUG [Fam1A.1 aminoacylation ribozyme variant] | 3.09 | 0.914 | 0.742 | 0.776 | 4.58 | 0.817
CUAGUGCAAACAAUCGGUCUG [Fam1A.1 aminoacylation ribozyme variant] | 0.9 | 1 | 1.03 | 0.962 | 2.39 | 0.998
CUAGUUCAAACAAACGGUCUG [Fam1A.1 aminoacylation ribozyme variant] | 0.823 | 0.77 | 0.91 | 0.814 | 0.831 | 0.913
CUAGUUCAAACAACCGGUCUG [Fam1A.1 aminoacylation ribozyme variant] | 0.982 | 1.2 | 0.965 | 1.05 | 0.987 | 1.23
CUAGUUCAAACAGUCGGUCUG [Fam1A.1 aminoacylation ribozyme variant] | 0.759 | 0.945 | 1.12 | 0.947 | 0.551 | 1.04
CUAGUUCAAAGAAUCGGUCUG [Fam1A.1 aminoacylation ribozyme variant] | 1.44 | 0.951 | 1.14 | 1.04 | 1.5 | 0.967
CUAGUUCAAAUAAUCGGUCUG [Fam1A.1 aminoacylation ribozyme variant] | 2.87 | 0.793 | 0.879 | 0.872 | 3.78 | 0.901
CUAGUUUAAACAAUCGGUCUG [Fam1A.1 aminoacylation ribozyme variant] | 0.631 | 0.765 | 0.774 | 0.84 | 0.814 | 0.924
CUAUAUCAAACAAUCGGUCUG [Fam1A.1 aminoacylation ribozyme variant] | 1.01 | 0.634 | 0.638 | 0.561 | 1.62 | 0.752
CUAUUUAAAACAAUCGGUCUG [Fam1A.1 aminoacylation ribozyme variant] | 0.616 | 0.841 | 0.774 | 0.927 | 0.598 | 0.834
CUAUUUCAAACAAACGGUCUG [Fam1A.1 aminoacylation ribozyme variant] | 0.586 | 0.971 | 0.72 | 0.923 | 1.2 | 0.961
